Results published in patent US20240425579A1.

What was measured:
[1] = molecular target: T1, biotinylated hu-PDL2 (human) (UniProt Q9BQ51); assay: ELISA: construct coated at 1 µg/mL, varying biotinylated hu-PDL2, streptavidin-HRP
T1 sequence (biotinylated, looked up): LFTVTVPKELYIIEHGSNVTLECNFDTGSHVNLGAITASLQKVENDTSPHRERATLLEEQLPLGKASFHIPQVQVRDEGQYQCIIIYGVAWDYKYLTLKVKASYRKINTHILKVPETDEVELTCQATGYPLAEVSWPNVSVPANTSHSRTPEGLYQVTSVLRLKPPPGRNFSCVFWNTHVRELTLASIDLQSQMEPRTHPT

[2] = molecular target: T1, biotinylated hu-PDL2 (human); assay: ELISA: varying concentrations of construct coated, fixed biotinylated hu-PDL2 (500 ng/mL)

wild type PD1 construct (wild-type PD1 ECD comparator of anti-IL-23-PD1ecd), sequence (heavy, part): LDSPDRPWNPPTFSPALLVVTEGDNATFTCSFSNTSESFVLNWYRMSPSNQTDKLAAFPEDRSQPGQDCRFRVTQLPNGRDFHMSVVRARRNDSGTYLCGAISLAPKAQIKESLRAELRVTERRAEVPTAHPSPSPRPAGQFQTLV

EC50 [1]: 0.131 µM | EC50 [2]: 6 µM
Substance: wild type PD1 construct (wild-type PD1 ECD comparator of anti-IL-23-PD1ecd)
